Reference: article doi:10.1101/2023.07.24.550319

Target: PP1c^1-293 (potato Protein Phosphatase 1-c isoform-3) (potato)
Assay: ITC

B1: Pi04314 WY-only (domain or fragment)
chain: DLLGLFAKSKLKKMMKSESFKLKRFGEWDDFTVGYIREKLKNKYPDLLLNYLNVYKKAGNEIVR
Work on B1 yielded a Kd of 12.2 µM.
